We go through one molecule from patent publication US20190353647A1 (UNIVERSITE DE BORDEAUX, published 2019).

The target in this assay is YFP-CaM (human, UniProt P0DP23 2-149). Nature of the assay: BRET titration curves in live HEK293T cells. (In general: Bioluminescence resonance energy transfer reports proximity on the nanometre scale.)

B1: TRPV1-Luc (receptor)
chain: MKKWSSTDLGAAADPLQKDTCPDPLDGDPNSRPPPAKPQLSTAKSRTRLFGKGDSEEAFPVDCPHEEGELDSCPTITVSPVITIQRPGDGPTGARLLSQDSVAASTEKTLRLYDRRSIFEAVAQNNCQDLESLLLFLQKSKKHLTDNEFKDPETGKTCLLKAMLNLHDGQNTTIPLLLEIARQTDSLKELVNASYTDSYYKGQTALHIAIERRNMALVTLLVENGADVQAAAHGDFFKKTKGRPGFYFGELPLSLAACTNQLGIVKFLLQNSWQTADISARDSVGNTVLHALVEVADNTADNTKFVTSMYNEILMLGAKLHPTLKLEELTNKKGMTPLALAAGTGKIGVLAYILQREIQEPECRHLSRKFTEWAYGPVHSSLYDLSCIDTCEKNSVLEVIAYSSSETPNRHDMLLVEPLNRLLQDKWDRFVKRIFYFNFLVYCLYMIIFTMAAYYRPVDGLPPFKMEKTGDYFRVTGEILSVLGGVYFFFRGIQYFLQRRPSMKTLFVDSYSEMLFFLQSLFMLATVVLYFSHLKEYVASMVFSLALGWTNMLYYTRGFQQMGIYAVMIEKMILRDLCRFMFVYIVFLFGFSTAVVTLIEDGKNDSLPSESTSHRWRGPACRPPDSSYNSLYSTCLELFKFTIGMGDLEFTENYDFKAVFIILLLAYVILTYILLLNMLIALMGETVNKIAQESKNIWKLQRAITILDTEKSFLKCMRKAFRSGKLLQVGYTPDGKDDYRWCFRVDEVNWTTWNTNVGIINEDPGNCEGVKRTLSFSLRSSRVSGRHWKNFALVPLLREASARDRQSAQPEEVYLRQFSGSLKPEDAEVFKSPAASGEKVPVNSGGGGS
notes: whole, on cells; BRET donor fusion, Luc at the C-terminus of TRPV1; transiently expressed in live HEK293T cells; also called hTRPV1-Luc; not shown: Renilla Luciferase II (Luc, Luc2, a mutant of Renilla reniformis luciferase)
As for B1, the binding result is on record as “binds”.
